Eight molecules from paper PMC4366684 (The FEBS journal, 2013) can be followed below.

A word on the Km: it is the substrate concentration at which the rate is half of its maximum. The term kcat denotes the maximal rate divided by the concentration of active sites. The kcat/Km is the turnover number divided by the Michaelis constant.

Data set [1] concerns the target T1, low-specificity Escherichia coli L-threonine aldolase (eTA) (Escherichia coli, UniProt P75823). As to the kind of experiment: X-ray crystal structure, […] Å. The class given is binding. The settings on record: covalent, internal aldimine with Lys197; 1:1 per subunit.
The target in data set [2] is T1, low-specificity Escherichia coli L-threonine aldolase (eTA). As to the kind of experiment: X-ray crystal structure, […] Å, co-crystallised with L-serine. It counts as binding. The settings on record: covalent, external aldimine with PLP; partial occupancy.
Substrate in data set [3]: C[C@@H](O)[C@H](N)C(=O)O
As to the kind of experiment: purified protein. The class given is biochemical, Escherichia coli. The settings on record: 20 mM potassium phosphate, pH 7.0, 30 °C, retro-aldol cleavage.

Substrate in data set [4]: C[C@H](O)[C@H](N)C(=O)O
In words: purified protein. To be noted: 20 mM potassium phosphate, pH 7.0, 30 °C, retro-aldol cleavage. It counts as biochemical, Escherichia coli.

Numbering of substitutions follows the chain as printed. Names may count otherwise.

In the case of `Cc1ncc(COP(=O)(O)O)c(C=O)c1O` [PLP], the “X-ray crystal structure, 2.2 Å” value in data set [1] is “PLP bound at their interface, forming a Schiff base (internal aldimine) with the conserved Lys197”.
As to `NCC(=O)O` [glycine], the “X-ray crystal structure, 2.2 Å, co-crystallised with L-serine” value in data set [2] is “external aldimine with glycine (in which the C4’ is bound to the amino group”.

B1: low-specificity Escherichia coli L-threonine aldolase (eTA) (Escherichia coli K-12) (protein)
chain: MIDLRSDTVTRPSRAMLEAMMAAPVGDDVYGDDPTVNALQDYAAELSGKEAAIFLPTGTQANLVALLSHCERGEEYIVGQAAHNYLFEAGGAAVLGSIQPQPIDAAADGTLPLDKVAMKIKPDDIHFARTKLLSLENTHNGKVLPREYLKEAWEFTRERNLALHVDGARIFNAVVAYGCELKEITQYCDSFTICLSKGLGTPVGSLLVGNRDYIKRAIRWRKMTGGGMRQSGILAAAGIYALKNNVARLQEDHDNAAWMAEQLREAGADVMRQDTNMLFVRVGEENAAALGEYMKARNVLINASPIVRLVTHLDVSREQLAEVAAHWRAFLAR
Take B1: in data set [3], the Km came to 19400 µM, the kcat worked out at 1.87 s⁻¹ and the kcat/Km was found to be 96.7 M⁻¹ s⁻¹. In addition, in data set [4], the Michaelis-Menten constant (Km) stood at 240 µM, the kcat was determined as 3.55 s⁻¹ and the kcat/Km turned out to be 14800 M⁻¹ s⁻¹.

B2: low-specificity Escherichia coli L-threonine aldolase (eTA) (Escherichia coli K-12; H126N) (protein)
chain: B1 chain with H126N
B2: in data set [4], the Km is 960 µM, the kcat was found to be 7.82 s⁻¹ and the kcat/Km is 8130 M⁻¹ s⁻¹.

B3: low-specificity Escherichia coli L-threonine aldolase (eTA) (Escherichia coli K-12; H126F) (protein)
chain: B1 chain with H126F
Consider B3, for which, in data set [4], the Km stood at 200 µM, the kcat came to 9.02 s⁻¹ and the catalytic efficiency (kcat/Km) stood at 45100 M⁻¹ s⁻¹.

B4: low-specificity Escherichia coli L-threonine aldolase (eTA) (Escherichia coli K-12; K222A) (protein)
chain: B1 chain with K222A
Regarding B4, in data set [4], the Km came out at 1200 µM, the kcat was 1.33 s⁻¹ and the kcat/Km stood at 1120 M⁻¹ s⁻¹.

B5: low-specificity Escherichia coli L-threonine aldolase (eTA) (Escherichia coli K-12; F87D) (protein)
chain: B1 chain with F87D
Regarding B5, in data set [4], the Km turned out to be 410 µM, the kcat amounted to 1.95 s⁻¹ and the catalytic efficiency (kcat/Km) is 4750 M⁻¹ s⁻¹.

B6: low-specificity Escherichia coli L-threonine aldolase (eTA) (Escherichia coli K-12; F87A) (protein)
chain: B1 chain with F87A
In the case of B6, in data set [4], the Km stood at 310 µM, the kcat is 2.67 s⁻¹ and the specificity constant (kcat/Km) stood at 8600 M⁻¹ s⁻¹.
